Consider 3 substances from publication PMC5892887.

Series [1] concerns *I (gp32 lacking C-domain) (bacteriophage T4). The series is described as follows: single-molecule DNA stretching. Conditions: Stopped-flow: 10 mM Tris-HCl pH 8.3, 0.1 mM Na2EDTA, 25 °C, NaCl varied (0.02 M for typical traces); DNA stretching: 0.1 M Na+.
For series [2], the system named is 1-295 (bacteriophage T4). The series is described as follows: single-molecule DNA stretching. Conditions: Stopped-flow: 10 mM Tris-HCl pH 8.3, 0.1 mM Na2EDTA, 25 °C, NaCl varied (0.02 M for typical traces); DNA stretching: 0.1 M Na+.
Series [3] deals with gp32 (full-length gene 32 protein) (bacteriophage T4). The series is described as follows: single-molecule DNA stretching. The settings on record: Stopped-flow: 10 mM Tris-HCl pH 8.3, 0.1 mM Na2EDTA, 25 °C, NaCl varied (0.02 M for typical traces); DNA stretching: 0.1 M Na+.
The test system of series [4] is ΔPR201 (bacteriophage T4). The series is described as follows: single-molecule DNA stretching. The settings on record: Stopped-flow: 10 mM Tris-HCl pH 8.3, 0.1 mM Na2EDTA, 25 °C, NaCl varied (0.02 M for typical traces); DNA stretching: 0.1 M Na+.
Series [5] has as its target Core domain of bacteriophage T4 gene 32 protein (*III; protein minus both N- and C-domains) (bacteriophage T4) (UniProt P03695). The series is described as follows: cross-linking; EDC/NHS zero-length cross-linking in solution, read by SDS-PAGE; 20 uM CTD and 4 uM core domain (*III) (5:1), 40 mM MES pH 6.0, 5% glycerol, 0.5 mM EDC, 1.25 mM NHS, room temperature; also with rising p(dT)7 or NaCl.

For series [6] the target is unchanged. Kind of series: cross-linking + other: MALDI mass spectrometry; MALDI mass-spectroscopic analysis of the EDC/NHS cross-linked reaction mixture of CTD and core domain.

The stoichiometry N is the number of molecules, sites or subunits per partner or assembly.

On to λ-DNA, single-stranded (force-melted), for which the Ka in series [1] worked out at 1.5e+06 M⁻¹; in series [2], 99300 M⁻¹; in series [3] it was 33600 M⁻¹; in series [4] it was 102000 M⁻¹.

Consider λ-DNA, double-stranded, for which the values for the Ka in series [2] and in series [4] were 5950 M⁻¹ and 4390 M⁻¹, respectively.

Consider “C-terminal domain (CTD) of bacteriophage T4 gene 32 protein (domain or fragment)”, for which, in series [5], the percent inhibition of cross-linking at [p(dT)7]:[core domain] of 1 amounted to 50% and the percent inhibition of cross-linking with 30 mM NaCl worked out at 50%. The stoichiometry N in series [6] came out at 1.
